Values quoted from earlier work, collected in paper PMC2645917 (Journal of medicinal chemistry, 2008).

Conditions: in vivo, iv

exenatide
Half-life after i.v. injection: 26 min
